According to US20140161804A1 (AbbVie / Abbott, published 2014):
Changes are numbered by the printed parent chain.

B1: hMAK199-4-h10F7-M11.8 DVD-Ig (bispecific antibody, human IgG1, kappa, L234A L235A)
heavy: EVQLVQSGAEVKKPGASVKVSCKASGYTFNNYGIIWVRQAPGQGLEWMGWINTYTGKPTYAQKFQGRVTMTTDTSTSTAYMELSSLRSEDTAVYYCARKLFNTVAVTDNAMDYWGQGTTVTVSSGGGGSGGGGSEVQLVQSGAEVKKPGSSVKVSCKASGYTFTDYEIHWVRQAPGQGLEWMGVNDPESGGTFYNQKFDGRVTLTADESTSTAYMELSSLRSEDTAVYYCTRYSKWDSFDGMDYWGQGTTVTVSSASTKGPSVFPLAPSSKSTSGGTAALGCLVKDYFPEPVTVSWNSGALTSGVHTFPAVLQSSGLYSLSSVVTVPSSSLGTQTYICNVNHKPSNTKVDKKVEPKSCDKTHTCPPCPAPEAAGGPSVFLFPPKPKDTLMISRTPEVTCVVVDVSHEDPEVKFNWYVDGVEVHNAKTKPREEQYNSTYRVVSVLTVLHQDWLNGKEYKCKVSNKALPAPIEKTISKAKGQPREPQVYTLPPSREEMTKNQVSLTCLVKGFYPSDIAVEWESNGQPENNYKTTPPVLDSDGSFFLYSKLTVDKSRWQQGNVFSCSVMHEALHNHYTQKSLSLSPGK
light: DIQMTQSPSSLSASVGDRVTITCRASQDIENYLNWYQQKPGKAPKLLIYYTSRLQSGVPSRFSGSGSGTDFTLTISSLQPEDFATYFCQQGNTQPPTFGQGTKLEIKRGGSGGGGSGDIQMTQSPSSLSASVGDRVTITCRASSGIISYIDWFQQKPGKAPKRLIYATFDLASGVPSRFSGSGSGTDYTLTISSLQPEDFATYYCRQVGSYPETFGQGTKLEIKRTVAAPSVFIFPPSDEQLKSGTASVVCLLNNFYPREAKVQWKVDNALQSGNSQESVTEQDSKDSTYSLSSTLTLSKADYEKHKVYACEVTHQGLSSPVTKSFNRGEC
notes: DVD-Ig; IgG1 234,235 mut, kappa; GS10 linkers; also called HMAK199-4-GS10-H10F7-M11 DVD
B2: hMAK199-4-h10F7-M11.8 DVD-Ig wt (bispecific antibody, human IgG1, kappa)
heavy: not shown
light: B1 light
notes: DVD-Ig; wild-type IgG1, kappa; GS10 linkers; Uncertain; also called HMAK199-4-h10F7-M11.8 HC DVD wt
B3: hMAK195-21-h10F7-M11.8 DVD-Ig wt (bispecific antibody, human IgG1, kappa)
heavy: not shown
light: DIQMTQSPSSLSASVGDRVTITCRASQLVSSAVAWYQQKPGKAPKLLIYWASARHTGVPSRFSGSGSGTDFTLTISSLQPEDFATYYCQQHYKTPFTFGQGTKLEIKRGGSGGGGSGDIQMTQSPSSLSASVGDRVTITCRASSGIISYIDWFQQKPGKAPKRLIYATFDLASGVPSRFSGSGSGTDYTLTISSLQPEDFATYYCRQVGSYPETFGQGTKLEIKRTVAAPSVFIFPPSDEQLKSGTASVVCLLNNFYPREAKVQWKVDNALQSGNSQESVTEQDSKDSTYSLSSTLTLSKADYEKHKVYACEVTHQGLSSPVTKSFNRGEC
notes: DVD-Ig; wild-type IgG1, kappa; GS10 linkers; also called HMAK195-21-h10F7-M11.8 HC DVD wt
B4: hMAK195-21-h10F7-M11.8 DVD-Ig (bispecific antibody, human IgG1, kappa, L234A L235A)
heavy: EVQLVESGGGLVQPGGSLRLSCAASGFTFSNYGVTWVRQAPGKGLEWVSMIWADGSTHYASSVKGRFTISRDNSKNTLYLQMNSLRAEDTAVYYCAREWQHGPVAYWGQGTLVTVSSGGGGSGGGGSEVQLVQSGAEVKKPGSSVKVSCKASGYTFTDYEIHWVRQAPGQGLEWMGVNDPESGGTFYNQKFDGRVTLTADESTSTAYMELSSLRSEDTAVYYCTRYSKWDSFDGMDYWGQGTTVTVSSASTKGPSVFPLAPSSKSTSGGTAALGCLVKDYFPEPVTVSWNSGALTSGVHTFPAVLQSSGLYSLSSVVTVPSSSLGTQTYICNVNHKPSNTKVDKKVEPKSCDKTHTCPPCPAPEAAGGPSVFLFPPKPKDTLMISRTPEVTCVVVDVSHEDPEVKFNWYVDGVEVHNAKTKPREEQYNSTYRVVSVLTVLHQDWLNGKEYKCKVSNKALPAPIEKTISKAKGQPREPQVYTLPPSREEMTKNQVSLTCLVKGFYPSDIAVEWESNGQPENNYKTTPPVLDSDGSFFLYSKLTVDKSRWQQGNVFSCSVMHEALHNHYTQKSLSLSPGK
light: B3 light
notes: DVD-Ig, TNF outer / IL-17 inner domain; IgG1 234,235 mut, kappa; GS10 linkers; also called hMAK195-21-GS10-M11 DVD
B5: hMAK195-24-h10F7-M11.8 DVD-Ig wt (bispecific antibody, human IgG1, kappa)
heavy: not shown
light: B3 light with R24K, A53T, R54L, K93R
notes: DVD-Ig; wild-type IgG1, kappa; GS10 linkers; also called HMAK195-24-h10F7-M11.8 HC DVD wt
B6: hMAK195-24-h10F7-M11.8 DVD-Ig (bispecific antibody, human IgG1, kappa, L234A L235A)
heavy: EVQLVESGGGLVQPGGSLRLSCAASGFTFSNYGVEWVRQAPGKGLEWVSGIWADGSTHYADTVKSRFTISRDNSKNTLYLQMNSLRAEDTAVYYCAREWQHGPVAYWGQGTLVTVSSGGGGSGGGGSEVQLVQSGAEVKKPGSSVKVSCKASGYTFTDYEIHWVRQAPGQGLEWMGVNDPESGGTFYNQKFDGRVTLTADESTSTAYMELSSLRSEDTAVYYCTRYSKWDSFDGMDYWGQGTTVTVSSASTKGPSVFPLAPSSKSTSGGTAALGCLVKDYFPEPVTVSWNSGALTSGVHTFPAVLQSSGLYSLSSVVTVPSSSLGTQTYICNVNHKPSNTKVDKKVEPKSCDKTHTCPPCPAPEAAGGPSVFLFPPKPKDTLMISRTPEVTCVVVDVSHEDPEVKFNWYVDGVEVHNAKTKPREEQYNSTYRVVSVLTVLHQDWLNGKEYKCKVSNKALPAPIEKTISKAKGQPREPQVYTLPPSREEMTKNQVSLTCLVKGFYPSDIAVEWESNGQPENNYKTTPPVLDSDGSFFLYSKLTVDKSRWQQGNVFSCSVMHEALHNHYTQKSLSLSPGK
light: B3 light with R24K, A53T, R54L, K93R
notes: DVD-Ig; IgG1 234,235 mut, kappa; GS10 linkers; also called hMAK195-24-GS10-M11 DVD
B7: IL17-h10F7M-B20 hIgG1/K mut (antibody, V domains shown)
VH: EVQLVQSGAEVKKPGSSVKVSCKASGYTFTDYEIHWVRQAPGQGLEWMGVNDPESGGTFYNQKFDGRVTLTADESTSTAYMELSSLRSEDTAVYYCTRYDKWYSFEGMDIWGQGTTVTVSS
VL: DIQMTQSPSSLSASVGDRVTITCRASSGIISYIDWFQQKPGKAPKRLIYATFDLASGVPSRFSGSGSGTDYTLTISSLQPEDFATYYCRQVGSYPETFGQGTKLEIK
notes: Full length human IgG1/kappa, IgG1 mut(234,235); also called h10F7-B20; J439M1S2(H)3 #B20
B8: IL17-h10F7M-A11 hIgG1/K mut (antibody, V domains shown)
VH: B7 VH with M48I, T71S, W102Y, Y103W, I110Y
VL: B7 VL
notes: Full length human IgG1/kappa, IgG1 mut(234,235); also called h10F7-A11; J439M1S2(H)3 #A11
B9: IL17-h10F7M-A6 hIgG1/K mut (antibody, V domains shown)
VH: B7 VH with M48I, E54D, F59L
VL: B7 VL with R24S, S27Q, I30R, A43S, S93N, E96G
notes: Full length human IgG1/kappa, IgG1 mut(234,235); also called h10F7-A6; J439M1S2(H)3 #A6

Experiments:
Human IL-17A [1] = target: T1, Human IL-17A (human, UniProt Q16552 20-155, limits assumed); assay: ELISA, captured DVD-Ig, biotin-human IL-17 titrated
T1 construct: Biotinylated in the ELISAs; purified recombinant protein in SPR; also called hIL17A; hIL-17
Method: (§1) The following protocol is used to characterize the binding of TNF/IL-17 DVD-Ig proteins to human TNF and IL-17 by enzyme-linked immunosorbent assay (ELISA). An ELISA plate was coated with 50 μl per well of goat anti mouse IgG-Fc at 2 μg/ml, overnight at 4° C. The plate was washed 3 times with PBS/Tween. 50 μl Mab diluted to 1 μg/ml in PBS/0.1% BSA was added to appropriate wells and incubated for 1 hour at room temperature (RT). The plate was washed 3 times with PBS/Tween. 50 μl of serial diluted biotin-human TNF or IL-17 was added to appropriate wells and incubated for 1 hour at RT. The plate was washed 3 times with PBS/Tween. 50 μl of streptavidin-HRP diluted 1:10,000 in PBS/0.1% BSA was added to appropriate wells and incubated for 1 hour at RT. The plate was washed 3 times with PBS/Tween. 50 μl of TMB was added to appropriate wells and the reaction allowed to proceed for 1 minute. The reaction was stopped with 50 μl/well 2N H₂SO₄ and the absorbance read at 450 nm.

Human IL-17A [2] = target: T1, Human IL-17A; assay: SPR (Biacore T200), DVD-Ig captured by anti-human IgG Fc, antigen in solution
Method: (§2) The binding of antibodies to purified recombinant IL-17 and TNFα proteins were determined by surface plasmon resonance-based measurements with a Biacore® T200 instrument (GE Healthcare) using running HBS-EP (10 mM HEPES [pH 7.4], 150 mM NaCl, 3 mM EDTA, and 0.005% surfactant P20) containing 0.1 mg/ml BSA at 25° C. All chemicals were obtained from Biacore® AB (GE Healthcare) or otherwise from a different source as described in the text. Approximately 5000 RU of goat anti-human IgG (Fcγ) fragment specific polyclonal antibody (Pierce Biotechnology Inc, Rockford, Ill.) diluted in 10 mM sodium acetate (pH 4.5) was directly immobilized across a CM5 research grade biosensor chip using a standard amine coupling kit according to manufacturer's instructions and procedures at 25 ug/ml. Unreacted moieties on the biosensor surface were blocked with ethanolamine. Modified carboxymethyl dextran surface in flowcell 2, 3 and 4 were used as a reaction surface. Modified carboxymethyl dextran with goat IgG in flow cell 1 was used as the reference surface. For kinetic analysis, rate equations derived from the 1:1 Langmuir binding model were fitted simultaneously to association and dissociation phases of all six injections (using global fit analysis with local float for Rmax) with the use of Biacore T200 Evaluation software v.1.0. Purified antibodies were diluted in HEPES-buffered saline for capture across goat anti-human IgG specific reaction surfaces. Antibodies to be captured as ligand (1-5 μg/ml) were injected over reaction matrices at a flow rate of 50 μl/minute. Association phase was monitored for 5 minutes, while dissociation phase was monitored for 10-60 minutes to accommodate for slower off-rates. The association and dissociation rate constants, ka (unit M-1 s-1) and kd (unit s-1) were determined under a continuous flow rate of 50 μl/minute. Rate constants were derived by making kinetic binding measurements at six different antigen concentrations ranging from 0.78 nM to 100 nM, depending on the species of IL-17 or TNFα tested. The association ka, dissociation rate kd and equilibrium dissociation constant KD were calculated with the use of the same Biacore T200 Evaluation software v.1.0.

Cynomolgus monkey IL-17A = target: T2, Cynomolgus monkey IL-17A (cynomolgus monkey, UniProt A0A2K5TTB0 24-155); assay: as above
T2 construct: also called Cyno IL-17AA; Cyno IL17AA
Method: as §2

Rhesus TNFa = target: T3, Rhesus TNFa (rhesus, UniProt P48094 77-233); assay: as above
T3 construct: also called Rhesus TNF-alpha
Method: as §2

Human IL-17A [3] = target: T1, Human IL-17A; assay: ELISA, captured antibody, biotin-human IL-17 titrated
Method: as §1, with “IL-17 antibodies” for “TNF/IL-17 DVD-Ig proteins”, “human” for “human TNF and”, “biotin-human” for “biotin-human TNF or”

Human IL-17A [4] = target: T1, Human IL-17A; assay: SPR (Biacore T200), antibody captured by anti-human IgG Fc, antigen in solution
Method: The binding of antibodies to purified recombinant IL-17 proteins was determined by surface plasmon resonance-based measurements with a Biacore® T200 instrument (GE Healthcare) using running HBS-EP (10 mM HEPES [pH 7.4], 150 mM NaCl, 3 mM EDTA, and 0.005% surfactant P20) containing 0.1 mg/ml BSA at 25° C. All chemicals were obtained from Biacore® AB (GE Healthcare) or otherwise from a source as described in the text. Approximately 5000 RU of goat anti-human IgG (Fcg) fragment specific polyclonal antibody (Pierce Biotechnology Inc, Rockford, Ill.) diluted in 10 mM sodium acetate (pH 4.5) was directly immobilized across a CM5 research grade biosensor chip using a standard amine coupling kit according to manufacturer's instructions and procedures at 25 μg/ml. Unreacted moieties on the biosensor surface were blocked with ethanolamine. Modified carboxymethyl dextran surface in flowcell 2, 3 and 4 were used as a reaction surface. Modified carboxymethyl dextran with Goat IgG in flow cell 1 was used as the reference surface. For kinetic analysis, rate equations derived from the 1:1 Langmuir binding model were fitted simultaneously to association and dissociation phases of all six injections (using global fit analysis with local float for Rmax) with the use of Biacore T200 Evaluation software v.1.0. Purified antibodies were diluted in HEPES-buffered saline for capture across goat anti-human IgG specific reaction surfaces. Antibodies to be captured as ligand (1-5 μg/ml) were injected over reaction matrices at a flow rate of 50 μl/minute. Association phase was monitored for 5 minute, while dissociation phase was monitored for 10-60 min to accommodate for slower off-rates. The association and dissociation rate constants, ka (unit M-1 s-1) and kd (unit s-1) were determined under a continuous flow rate of 50 μl/minute. Rate constants were derived by making kinetic binding measurements at six different antigen concentrations ranging from 0.78 nM to 100 nM, depending on the species of IL-17 tested. The association ka, dissociation rate kd and equilibrium dissociation constant KD were calculated with the use of the same Biacore T200 Evaluation software v.1.0.

T3 sequence (P48094 77-233 limits assumed): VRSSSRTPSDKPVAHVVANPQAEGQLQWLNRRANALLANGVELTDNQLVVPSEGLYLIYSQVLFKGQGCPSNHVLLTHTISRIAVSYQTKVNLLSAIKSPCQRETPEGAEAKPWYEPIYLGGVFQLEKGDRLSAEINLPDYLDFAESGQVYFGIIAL
T1 sequence (Q16552 20-155 limits assumed): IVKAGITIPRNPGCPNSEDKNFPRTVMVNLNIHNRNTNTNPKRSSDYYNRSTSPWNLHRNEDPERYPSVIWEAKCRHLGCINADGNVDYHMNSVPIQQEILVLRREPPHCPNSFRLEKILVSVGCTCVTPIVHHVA
T2 sequence (A0A2K5TTB0 entry or part of it): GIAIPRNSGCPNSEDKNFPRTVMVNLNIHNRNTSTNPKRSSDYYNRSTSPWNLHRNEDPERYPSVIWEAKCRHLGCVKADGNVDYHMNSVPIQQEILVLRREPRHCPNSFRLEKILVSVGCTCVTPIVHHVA

| Binder | EC50 (Human IL-17A [1]) [nM] | Kd (Human IL-17A [2]) [nM] | koff (Human IL-17A [2]) [s⁻¹] | kon (Human IL-17A [2]) [M⁻¹ s⁻¹] | Kd (Cynomolgus monkey IL-17A) [nM] | koff (Cynomolgus monkey IL-17A) [s⁻¹] | kon (Cynomolgus monkey IL-17A) [M⁻¹ s⁻¹] | Kd (Rhesus TNFa) [nM] | koff (Rhesus TNFa) [s⁻¹] | kon (Rhesus TNFa) [M⁻¹ s⁻¹] | EC50 (Human IL-17A [3]) [nM] | Kd (Human IL-17A [4]) [nM] | koff (Human IL-17A [4]) [s⁻¹] | kon (Human IL-17A [4]) [M⁻¹ s⁻¹] |
| --- | --- | --- | --- | --- | --- | --- | --- | --- | --- | --- | --- | --- | --- | --- |
| B1 | 0.13 | 0.0271 | 8.76e-06 | 323000 | 0.00861 | 2.57e-06 | 299000 | 0.00772 | 2.25e-05 | 2.91e+06 |  |  |  |  |
| B2 | 0.1 | 0.0259 |  | 311000 | 0.0113 | 3.15e-06 | 278000 | 0.00813 | 2.48e-05 | 3.05e+06 |  |  |  |  |
| B3 | 0.11 | 0.0386 | 9.26e-06 | 239000 | 0.0109 | 2.21e-06 | 203000 | 0.031 | 0.000141 | 4.56e+06 |  |  |  |  |
| B4 | 0.095 | 0.0434 | 1.05e-05 | 242000 | 0.0253 | 6.28e-06 | 248000 | 0.0254 | 0.000132 | 5.21e+06 |  |  |  |  |
| B5 | 0.12 | 0.0363 | 8.48e-06 | 233000 | 0.0201 | 4.29e-06 | 214000 | 0.0752 | 0.00046 | 6.12e+06 |  |  |  |  |
| B6 | 0.084 | 0.0427 | 1.07e-05 | 251000 | 0.0241 | 6.25e-06 | 259000 | 0.0716 | 0.000343 | 4.78e+06 |  |  |  |  |
| B7 |  |  |  |  |  |  |  |  |  |  | 0.07 | 0.00214 | 6.27e-06 | 2.92e+06 |
| B8 |  |  |  |  |  |  |  |  |  |  | 0.04 | 0.0021 | 7.68e-06 | 3.64e+06 |
| B9 |  |  |  |  |  |  |  |  |  |  | 0.08 | 0.0015 | 4.48e-06 | 2.99e+06 |
